# In patent publication US20120288507A1 (Amgen, published 2012):
# T1: human WISE G117A (human, UniProt Q6X4U4 24-206)
# T1 construct: Alanine mutant of loop 2, used as supernatant of transiently transfected mammalian cells
# T1 chain: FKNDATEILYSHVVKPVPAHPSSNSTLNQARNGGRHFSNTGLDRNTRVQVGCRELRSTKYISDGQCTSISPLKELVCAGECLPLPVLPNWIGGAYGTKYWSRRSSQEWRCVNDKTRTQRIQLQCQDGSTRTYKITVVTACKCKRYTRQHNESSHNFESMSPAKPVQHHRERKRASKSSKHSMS
# T2: human WISE N112A (human, UniProt Q6X4U4 24-206)
# T2 construct: Alanine mutant of loop 2, used as supernatant of transiently transfected mammalian cells
# T2 chain: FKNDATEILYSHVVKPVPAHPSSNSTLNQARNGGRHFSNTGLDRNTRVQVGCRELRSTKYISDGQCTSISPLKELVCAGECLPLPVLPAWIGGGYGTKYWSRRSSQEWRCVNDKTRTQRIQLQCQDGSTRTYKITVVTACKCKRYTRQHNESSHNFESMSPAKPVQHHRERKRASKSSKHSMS
# T3: human WISE L110A (human, UniProt Q6X4U4 24-206)
# T3 construct: Alanine mutant of loop 2, used as supernatant of transiently transfected mammalian cells
# T3 chain: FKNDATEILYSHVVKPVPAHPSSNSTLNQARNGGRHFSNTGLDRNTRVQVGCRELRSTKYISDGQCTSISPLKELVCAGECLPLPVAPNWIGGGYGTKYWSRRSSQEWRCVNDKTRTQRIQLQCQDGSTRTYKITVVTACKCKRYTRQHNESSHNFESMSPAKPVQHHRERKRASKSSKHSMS
# T4: human WISE (human, UniProt Q6X4U4 24-206)
# T4 construct: Recombinant protein secreted from mammalian cells; also called hWISE; huWISE
# T4 sequence: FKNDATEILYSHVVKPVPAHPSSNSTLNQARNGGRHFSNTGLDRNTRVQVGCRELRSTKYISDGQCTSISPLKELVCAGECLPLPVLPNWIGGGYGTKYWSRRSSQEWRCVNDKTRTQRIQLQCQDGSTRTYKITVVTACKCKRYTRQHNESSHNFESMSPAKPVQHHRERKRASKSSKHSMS
# T5: human WISE K121A (human, UniProt Q6X4U4 24-206)
# T5 construct: Alanine mutant of loop 2, used as supernatant of transiently transfected mammalian cells
# T5 chain: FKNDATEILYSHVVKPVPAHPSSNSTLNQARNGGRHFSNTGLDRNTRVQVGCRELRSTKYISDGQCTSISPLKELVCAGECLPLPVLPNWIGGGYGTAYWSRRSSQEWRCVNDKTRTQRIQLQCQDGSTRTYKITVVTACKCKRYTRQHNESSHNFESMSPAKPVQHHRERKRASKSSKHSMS
# T6: human WISE I114A (human, UniProt Q6X4U4 24-206)
# T6 construct: Alanine mutant of loop 2, used as supernatant of transiently transfected mammalian cells
# T6 chain: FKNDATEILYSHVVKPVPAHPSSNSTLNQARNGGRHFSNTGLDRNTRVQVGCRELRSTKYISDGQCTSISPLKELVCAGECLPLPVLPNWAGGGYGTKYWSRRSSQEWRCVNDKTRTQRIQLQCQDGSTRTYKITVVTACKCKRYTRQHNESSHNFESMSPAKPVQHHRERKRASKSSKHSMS
# What was measured:
# [1] = molecular target: T1, human WISE G117A; experiment: capture ELISA, WISE mutant supernatant (FIG. 27)
# Experimental: (§1) Relative capture of individual WISE mutant proteins or wild type proteins by either neutralizing antibodies or non-neutralizing antibodies was compared to assess whether any of these single amino acid changes affects the binding of an antibody to WISE protein. The bound WISE proteins were then detected using HRP-conjugated affinity-purified polyclonal antibody against WISE.
# (§2) Purified anti-WISE antibodies (0.5 ug/ml) were added onto high-binding ELISA plates pre-coated with 1 ug/ml of goat anti-mouse IgG Fc (Pierce). Plates were incubated for 1 hour in room temperature. Plates were then washed 4× with Wash Buffer. Subsequently alanine scanned WISE loop-2 mutant supernatants from transient transfection cultures (100× diluted) were added and incubated for 1 hour in room temperature. After 4× wash, rabbit anti-WISE Pab-biotin (50 ng/ml)+NeutrAvidin-HRP (Pierce, Cat #31001) were added onto the plates and incubated for 1 hour in room temperature. Plates were again washed 4× with Wash Buffer. Binding was analyzed using 1-Step Ultra TMB-ELISA substrate (Pierce; Cat #34028) according to the manufacturer's instructions.
# [2] = molecular target: T2, human WISE N112A; experiment: capture ELISA, WISE mutant supernatant (FIG. 27)
# Experimental: as §1, §2
# [3] = molecular target: T3, human WISE L110A; experiment: capture ELISA, WISE mutant supernatant (FIG. 27)
# Experimental: as §1, §2
# [4] = molecular target: T1, human WISE G117A; experiment: capture ELISA, WISE mutant supernatant (FIG. 28)
# Experimental: as §1, §2
# [5] = molecular target: T2, human WISE N112A; experiment: capture ELISA, WISE mutant supernatant (FIG. 28)
# Experimental: as §1, §2
# [6] = molecular target: T3, human WISE L110A; experiment: capture ELISA, WISE mutant supernatant (FIG. 28)
# Experimental: as §1, §2
# [7] = molecular target: T4, human WISE; experiment: capture ELISA binding profile (FIG. 28)
# Experimental: as §1, §2
# [8] = molecular target: T5, human WISE K121A; experiment: capture ELISA, WISE mutant supernatant (FIG. 22)
# Experimental: as §1, §2
# [9] = molecular target: T6, human WISE I114A; experiment: capture ELISA, WISE mutant supernatant (FIG. 22)
# Experimental: as §1, §2
# [10] = molecular target: T4, human WISE; experiment: capture ELISA binding profile (FIG. 22)
# Experimental: as §1, §2
binder,measurement,setting,value
"Ab-AJ (antibody, V domains shown, Murine anti-WISE monoclonal antibody; also called WISE Loop 2 Mab (Ab-AJ)) VH: EVQLQQSGAELVRSGASVKLSCTASGFNIKDYYMHWVKQRPEQGLEWIGWIDPENGDTEYAPKFQGKATMTADTSSNTAYLQLSSLTSEDTAVYYCNFYDVYSEGALDYWGQGTSVTVSS VL: DIVMSQSPSSLAVSAGEKVTMSCKSSQSLLNSRTRKNYLAWYQQKPGQSPKLLIYWASTRESGVPDRFTGSGSGTDFTLTISSVQAEDLAVYYCKQSYNLPTFGGGTKLEIK",absorbance,[1],≤ 1.5 absorbance
same,absorbance,[2],≤ 1.5 absorbance
same,absorbance,[3],≤ 1.5 absorbance
"Ab-AF (antibody, V domains shown, Murine monoclonal antibody purified from hybridoma; also called WISE Loop 2 Mab (Ab-AF)) VH: QIQLVQSGPELKKPGETVKISCKASGYTFTDYSMHWVKQAPGKGLKWMGWINTETGEPTYADDFKGRFAFSLETSASTACLEINNLKNEDTATYFCSLTGYWGQGTSVTVSS VL: DIQMTQSPASLSASVGETVTITCGASENIYGALNWYQRKQGKSPQVLIYGATNLADGMSSRFSGSGSGRQYSLKISSLHPDDVAMYYCQNVFSSPLTFGAGTKLELK",binding result,[4],binds
same,binding result,[5],binds
same,binding result,[6],binds
same,binding result,[7],binds
"Ab-AG (antibody, V domains shown, Murine anti-WISE monoclonal antibody; also called WISE Loop 2 Mab (Ab-AG)) VH: QIQLVQSGPELKKPGETVKISCKASGYTFTDYSMHWVKQAPGKGLKWMGWINTETGEPTYAADFKGRFAFSLETSASTAYLQINNLKNEDTATYFCTLTGYWGQGTSVTVSS VL: DIQMTQSPASLSASVGETVTITCGASENIYGALNWYQRKQGKSPQLLIFGATNLADGMSSRFSGSGSGRQYSLEISSLHPDDVATYYCQNLFNSPLTFGAGTKLDLK",binding result,[8],binds
same,binding result,[9],binds
same,binding result,[10],binds
